From the supplement of paper PMC12667976
± gives the standard error.

B1: library; numbered along this chain (parent)
chain: MATDAALRRLLRLHRTEIAVAVDSAFPLLHALADHDVVPEDKFQETLHLKEKEGCPQAFHALLSWLLTQDSTAILDFWRVLFKDYNLERYGRLQPILDSFPKDVDLSQPRKGRKPPAVPKALVPPPRLPTKRKASEEARAAAPAALTPRGTASPGSQLKAKPPKKPESSAEQQRLPLGNGIQTMSASVQRAVAMSSGDVPGARGAVEGILIQQVFESGGSKKCIQVGGEFYTPSKFEDSGSGKNKARSSSGPKPLVRAKGAQGAAPGGGEARLGQQGSVPAPLALPSDPQLHQKNEDECAVCRDGGELICCDGCPRAFHLACLSPPLREIPSGTWRCSSCLQATVQEVQPRAEEPRPQEPPVETPLPPGLRSAGEEVRGPPGEPLAGMDTTLVYKHLPAPPSAAPLPGLDSSALHPLLCVGPEGQQNLAPGARCGVCGDGTDVLRCTHCAAAFHWRCHFPAGTSRPGTGLRCRSCSGDVTPAPVEGVLAPSPARLAPGPAKDDTASHEPALHRDDLESLLSEHTFDGILQWAIQSMARPAAPFPS

Variants of: B1
Test: AIRE transcriptional activation functional score (insulin promoter-GFP; nonsense median 0, synonymous median 1) (normalised score); higher = higher AIRE activity (more reporter activation)
Settings: with insulin promoter-GFP reporter in HEK293
Outline: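 Codon-optimized AIRE NNN-codon libraries (three regions) were integrated by Bxb1 recombinase into Flp-In T-REx HEK293 landing-pad cells carrying an insulin core promoter-GFP reporter. Integrants (mCherry+, BFP−) sorted at day 7 were expanded 7 days; top 10% GFP and unselected integrant populations were tile-sequenced. Functional score is select versus non-select variant enrichment, wild-type subtracted. Variants needed 10 counts per million in non-select; scores were rescaled to nonsense median 0 and synonymous median 1, then averaged over biological replicates.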
V22T was tested, and the “AIRE transcriptional activation functional score” value was -0.0112 ± 0.23.
With V436Y the “AIRE transcriptional activation functional score” value was 1.28 ± 0.29.
Q530I was tested, and the “AIRE transcriptional activation functional score” value was 0.183 ± 0.36.
In the case of P357I, the “AIRE transcriptional activation functional score” value is reported as 1.11 ± 0.14.
P357A was tested, and the “AIRE transcriptional activation functional score” value was 1.01 ± 0.11.
For R190Q, the “AIRE transcriptional activation functional score” value was 1.24 ± 0.33.
A205R was tested, and the “AIRE transcriptional activation functional score” value was 0.318 ± 0.23.
For S64G, the “AIRE transcriptional activation functional score” value was 0.447 ± 0.49.
With E237M the “AIRE transcriptional activation functional score” value was 1.3 ± 0.031.
In the case of S248R, the “AIRE transcriptional activation functional score” value is reported as 0.215 ± 0.44.
For G469L, the “AIRE transcriptional activation functional score” value was 0.726 ± 0.3.
With P148M the “AIRE transcriptional activation functional score” value was 0.633 ± 0.3.
With F215W the “AIRE transcriptional activation functional score” value was 0.878 ± 0.036.
With R351K the “AIRE transcriptional activation functional score” value was 0.457 ± 0.088.
In the case of A321F, the “AIRE transcriptional activation functional score” value is reported as 1.1 ± 0.39.
With L146I the “AIRE transcriptional activation functional score” value was 0.888 ± 0.25.
For L146A, the “AIRE transcriptional activation functional score” value was 0.454 ± 0.55.
For A482P, the “AIRE transcriptional activation functional score” value was 1.92 ± 0.39.
For S239E, the “AIRE transcriptional activation functional score” value was 0.783 ± 0.084.
In the case of P280N, the “AIRE transcriptional activation functional score” value is reported as 1.37 ± 0.042.
A404V was tested, and the “AIRE transcriptional activation functional score” value was 0.729 ± 0.3.
In the case of D98W, the “AIRE transcriptional activation functional score” value is reported as -0.885 ± 0.15.
In the case of V104H, the “AIRE transcriptional activation functional score” value is reported as -0.483 ± 0.36.
A73E was tested, and the “AIRE transcriptional activation functional score” value was 0.775 ± 0.12.
With K133Y the “AIRE transcriptional activation functional score” value was -0.0322 ± 0.21.
A191F was tested, and the “AIRE transcriptional activation functional score” value was -0.339 ± 0.23.
With A170V the “AIRE transcriptional activation functional score” value was 0.782 ± 0.44.
With Q426S the “AIRE transcriptional activation functional score” value was 0.831 ± 0.54.
P355S was tested, and the “AIRE transcriptional activation functional score” value was 0.93 ± 0.21.
K222M was tested, and the “AIRE transcriptional activation functional score” value was -0.00949 ± 0.043.
With D410I the “AIRE transcriptional activation functional score” value was 1.19 ± 0.089.
P381Y was tested, and the “AIRE transcriptional activation functional score” value was 1.39 ± 0.44.
For W78E, the “AIRE transcriptional activation functional score” value was 0.582 ± 0.16.
In the case of K161N, the “AIRE transcriptional activation functional score” value is reported as 0.888 ± 0.32.
R538N was tested, and the “AIRE transcriptional activation functional score” value was -0.187 ± 0.14.
With L63D the “AIRE transcriptional activation functional score” value was -0.402 ± 0.66.
L63G was tested, and the “AIRE transcriptional activation functional score” value was 0.772 ± 0.4.
In the case of G197L, the “AIRE transcriptional activation functional score” value is reported as 1.06 ± 0.39.
With P27T the “AIRE transcriptional activation functional score” value was 0.0492 ± 0.53.
In the case of S195W, the “AIRE transcriptional activation functional score” value is reported as -0.0899 ± 0.062.
With P539L the “AIRE transcriptional activation functional score” value was -0.0017 ± 0.31.
With F459Y the “AIRE transcriptional activation functional score” value was 1.3 ± 0.17.
T16D was tested, and the “AIRE transcriptional activation functional score” value was -0.128 ± 0.45.
With N295L the “AIRE transcriptional activation functional score” value was 1.17 ± 0.36.
For Y85E, the “AIRE transcriptional activation functional score” value was -2.83 ± 0.47.
In the case of D34W, the “AIRE transcriptional activation functional score” value is reported as -0.393 ± 0.11.
In the case of D34E, the “AIRE transcriptional activation functional score” value is reported as -2.11 ± 1.8.
In the case of S156F, the “AIRE transcriptional activation functional score” value is reported as 1.53 ± 0.14.
For T151N, the “AIRE transcriptional activation functional score” value was 0.966 ± 0.16.
L175T was tested, and the “AIRE transcriptional activation functional score” value was 0.916 ± 0.35.
For E137K, the “AIRE transcriptional activation functional score” value was 0.00389 ± 0.35.
For G204W, the “AIRE transcriptional activation functional score” value was 0.133 ± 0.075.
V192L was tested, and the “AIRE transcriptional activation functional score” value was 1.02 ± 0.1.
In the case of S249Q, the “AIRE transcriptional activation functional score” value is reported as 0.961 ± 0.049.
In the case of F453K, the “AIRE transcriptional activation functional score” value is reported as -0.248 ± 0.043.
G438N was tested, and the “AIRE transcriptional activation functional score” value was 0.938 ± 0.11.
For K243F, the “AIRE transcriptional activation functional score” value was 0.81 ± 0.45.
R328A was tested, and the “AIRE transcriptional activation functional score” value was 0.877 ± 0.29.
With L177D the “AIRE transcriptional activation functional score” value was 0.322 ± 0.41.
A202G was tested, and the “AIRE transcriptional activation functional score” value was 0.818 ± 0.18.
With A202H the “AIRE transcriptional activation functional score” value was 1 ± 0.39.
For R203N, the “AIRE transcriptional activation functional score” value was 0.0951 ± 0.061.
With F59D the “AIRE transcriptional activation functional score” value was 0.139 ± 0.28.
T232W was tested, and the “AIRE transcriptional activation functional score” value was 0.451 ± 0.055.
P490A was tested, and the “AIRE transcriptional activation functional score” value was 0.812 ± 0.14.
V301Y was tested, and the “AIRE transcriptional activation functional score” value was 1.14 ± 0.17.
W335P was tested, and the “AIRE transcriptional activation functional score” value was 1.04 ± 0.19.
With C311E the “AIRE transcriptional activation functional score” value was 0.822 ± 0.35.
For L370G, the “AIRE transcriptional activation functional score” value was 1.08 ± 0.16.
L444Q was tested, and the “AIRE transcriptional activation functional score” value was 0.642 ± 0.092.
In the case of Q173S, the “AIRE transcriptional activation functional score” value is reported as 1.34 ± 0.43.
For A451S, the “AIRE transcriptional activation functional score” value was 0.496 ± 0.4.
For K245W, the “AIRE transcriptional activation functional score” value was 0.978 ± 0.06.
For A300G, the “AIRE transcriptional activation functional score” value was 0.768 ± 0.17.
In the case of S168V, the “AIRE transcriptional activation functional score” value is reported as 0.761 ± 0.57.
For K164P, the “AIRE transcriptional activation functional score” value was 1.62 ± 0.12.
For A450G, the “AIRE transcriptional activation functional score” value was 0.382 ± 0.16.
G112K was tested, and the “AIRE transcriptional activation functional score” value was 0.268 ± 0.48.
In the case of P384R, the “AIRE transcriptional activation functional score” value is reported as 1.19 ± 0.27.
In the case of V487F, the “AIRE transcriptional activation functional score” value is reported as 0.765 ± 0.31.
For V487C, the “AIRE transcriptional activation functional score” value was 0.67 ± 0.29.
P542D was tested, and the “AIRE transcriptional activation functional score” value was 0.633 ± 0.23.
In the case of L488N, the “AIRE transcriptional activation functional score” value is reported as 0.961 ± 0.29.
In the case of I209L, the “AIRE transcriptional activation functional score” value is reported as 0.758 ± 0.24.
For V214M, the “AIRE transcriptional activation functional score” value was 0.284 ± 0.11.
E363R was tested, and the “AIRE transcriptional activation functional score” value was 1.21 ± 0.11.
P254F was tested, and the “AIRE transcriptional activation functional score” value was 0.266 ± 0.23.
G178I was tested, and the “AIRE transcriptional activation functional score” value was 1.74 ± 0.37.
In the case of L11H, the “AIRE transcriptional activation functional score” value is reported as -0.271 ± 0.11.
K159P was tested, and the “AIRE transcriptional activation functional score” value was 0.44 ± 0.17.
In the case of G440L, the “AIRE transcriptional activation functional score” value is reported as 0.997 ± 0.14.
In the case of Q358F, the “AIRE transcriptional activation functional score” value is reported as 1.16 ± 0.086.
In the case of V479I, the “AIRE transcriptional activation functional score” value is reported as 0.977 ± 0.18.
With Q108G the “AIRE transcriptional activation functional score” value was 0.482 ± 0.68.
With G369A the “AIRE transcriptional activation functional score” value was 0.861 ± 0.17.
A373S was tested, and the “AIRE transcriptional activation functional score” value was 0.969 ± 0.32.
For T46R, the “AIRE transcriptional activation functional score” value was 0.389 ± 0.22.
In the case of K42P, the “AIRE transcriptional activation functional score” value is reported as -0.0735 ± 0.34.
In the case of W65I, the “AIRE transcriptional activation functional score” value is reported as -0.311 ± 0.42.
With A429H the “AIRE transcriptional activation functional score” value was 1.47 ± 0.041.
In the case of L28V, the “AIRE transcriptional activation functional score” value is reported as 0.05 ± 0.33.
With P401V the “AIRE transcriptional activation functional score” value was 0.635 ± 0.58.
In the case of E347Q, the “AIRE transcriptional activation functional score” value is reported as 0.943 ± 0.2.
